The results in this text go back to the DeepSol protein solubility set.

A short description of this data set: soluble on expression in E. coli; label from the status in PepcDB or PDB records.
“MGSDKIHHHHHHMWGPPWMPDQDGNMTRESGYFQCTNRNKYSVAVDITTPEGQALIYEIAKTADVVIENYKTGSLAKYGLDYASLSELNPNIVYCSITGFGQDGPRAEEPGYDFIIQGMSGLMSITGEPDDVAGGGAQKVGVAVVDIQTGLYSTIAIQAALIARSHTGRGQYIDMSLLDVQVAALANQGMNYLASGKAPQRMGNQHPSIVPYQTFKAKDKEFIIACGNDKQFKDLCIAIGYPELLENEKFVRNQDRVKYRNELIPLLSEHFLRKTAKEWVDMIHALKVPVGVINSIEDALAEPQIVYRNLVVNIPHRLNENFQTIGSPIKLSDTPVEYHHAPPELGEHTAQILSRFKTAEELAALKEKGIIDGKIA”: the “soluble on expression in E. coli” value was “not soluble”.

On to “MKKLLVIRNDKIGDFMLCFPAFMMLKQSMPNIEITALVPNYTAPLAELCPAIDHLIIDNTDKQDPIAFKQVQQAVQNGQFDAVICFVSSWYNAKLTWQSGIRYRLAPATKLFQFLYNHRLTQRRSQSIKAESEYNLDLARAFLIDHHMMPVEPQLEHHHHHH”, for which the “soluble on expression in E. coli” value is “soluble”.

For “MSLAAELFATRPDTHARERPEAVALIDRDRPVTHAALRAGVLDLAGGLAALGVCRGERVALWLPNCAHWVTMFLACARLGALTLAVNTRFRAQELGDILGRGQADWLVYWPGFKGIDFAGILAAVPPAARARLRGAIVVDGSGAQATPGPAGLAAHALAALHGPAPLPAPNAGVLCFTTSGTTSLPKFVLHDQDTLLRHGDAIARSYGYDDDSRILASAPFCGAFGFATLVGALARGVPVICEPAFDAARSVAAVRRHRVTHTYANNEALVQMFRLGERADFATARLFGFASFAPALGDLLPLARAQGVPLTGLYGSSELIALVAAQPREPADGDVSVRYEPGGALIHPEARVRARDPQDGRILADGESGEIEILAPSLMRGYLDNPQASAGALTDDGYFRTGDLGYTLGTRQFVFQTRMGDSLRLSGFLVNPAEIEQAVEALPGIRACQVVGATRDGKTVPYAFVLLDAGASPDPPGWMAACRQGMAGFKVPAGFQVLEAFPVVESANSAKIQKHKLREQAEALLAAAEGHHHHHH”, the “soluble on expression in E. coli” value is “not soluble”.

On to “MARLTAYERRKFRVRNRIKRTGRLRLSVFRSLKHIYAQIIDDEKGVTLVSASSLALKLKGNKTEVARQVGRALAEKALALGIKQVAFDRGPYKYHGRVKALAEGAREGGLEF”, for which the “soluble on expression in E. coli” value is “soluble”.

As to “MGSDKIHHHHHHMRLYTRTGDKGKTSVIGGRLAKDDTRVVAYGTTDELNSFVGSAITQLDENTFADIRGELFKIQHELFDCGGDLAMLKVKEDRPYKAKQEIVDFLEQRIDAYIKEAPELERFILPGGSEAAASLHVCRTIARRAERYVVRLQQEGEINPIVLKYLNRLSDYFFAVARVVNSRLQVPDVEYERSAIVFREGKRKEDKK”, the “soluble on expression in E. coli” value is on record as “soluble”.

Turning to “MGSDKIHHHHHHMEMMRDAVQFEPADSRVTRPSFWSSLPERWTSDVEETLVCCHVRQETHDVKSFFFHSPDGRAFVFEPGQFITLELEIEGETINRCYTISSSPARPHTLSITVKRVPGGKVSNWLHDNVRPGTPIRVLGPAGEFTCARHPARKYLFLSAGSGITPLMSMSRAHHDLGEDRDIVFVHSARTPDDIIFSRELDLIASNHANFRTSFVCESVGARTSWPGVTGFLSLPLLKLIAPDFMEREIFTCGPAPYMKAVRDLLDEGGFDRRRYHEESFSFETLTADGPADAPAPDTGVASAPHGIADMAAFSVSFAKSRREIVCSSGQHVLEAARQSGVRLPASCTQGMCGTCKVKLVSGQVEMKHNGGIRQREIDQGMVLLCCSKPLSDLVIDK”, the “soluble on expression in E. coli” value was “not soluble”.

On to “AFVKMVGHHVAFLEADVLQAERDHGAFPQALRRWLGSAGLPSFRNVSGVQWHNPSSLQPPPPGFK”, for which the “soluble on expression in E. coli” value is “not soluble”.

For the sequence “MAVMKVLIVEDETAAYENLTDILTEITPDIRIMANTESVTQTVGWLQSNPAPDLIFMDIHLSDGSAFAIFDRIELETPIIFTTAYDRYAIEAFKVNSIDYLLKPVKVEDVEHALEKYSKLTRQDLLQYLSQLTLLKPAPRYKDKLLIAHKDKLLPVNIKNISYFYATGKNTYVCLKDGNRYPYSKTLEQIASSLNPEDFIRANKQFIVARDSVTDITIWFDNRLLITLDTEVPERIYVSKNKASEFKTWLVNDK”, the “soluble on expression in E. coli” value is given as “not soluble”.

Consider “MRNERAAKLVVIGGGTGLPVLLRGLKQHELDLTAIVTVADDGGSSGRLRDELHIPPPGDVRNVLAALSDVEPLIVELFQHRFQNGNGLSGHSLGNLILAALTSITGDFVKAIREMSKVLNVRGQVLPAANKSVVLHAEMEDGSIVSGESKIPSAGKKIKRVFLTPEDIEPLPETVDAIRRADLIVIGPGSLYTSILPNLLVPKIGQEVCKAKAKKVYICNIMTQAGETPHYTVSDHVEALHAHLGGPFLDAVIINSGAIPEAIRRRYEAERAEPVRDDSSGLSLQVIRDDIVTYEDGVIRHNTAKVAALLLGLLPHR”, for which the “soluble on expression in E. coli” value is “not soluble”.

Regarding “MGLAQSHSRTPSRDPLPNDHQVMDVYEESGPRRGRKRKAAKGSEIEMKKVAKLNTCAYVYQKLFLQGENSDIVLAACGREWRVHKLYLKQTKFFESMFDGLWTESNSGRVQMEITDPNIDADGLNSVLGSLYHNEIEIDLDKIEGTVAAASYIVLDSVTDRCSEMMIEALSTKNAVRFYDVSTKYGLEKVREKSMEVLLHQFWKIMTDREKLNEVDRQLFVTLLNSPNLLIIEGEFDLYKVVKSWIYMREVPDCCKDDSPETFTQNASKFFKESKTSMFIKYADIFASLRIEQFLTCSETIKTVKSDALIPLSIVDEMTSALWSSLLENEESPKTLEMDDDEFFKRCIRLGRSLDSFPKCWRWIGFNFGVDLLLHVNDYSVCIKRNCLNQKAPYSVNLKSKHVLHYRLVICDSNGQILYDSGKTTWEMKPDEARTIYRMSEDLATQISVHFQYLIHQPICSTGHYVNKYLDDQNSTDDEDDEEEEDDDGDDEEDSS”, the “soluble on expression in E. coli” value is listed as “not soluble”.

For the sequence “MQDFKKLPTVLTAEELIDKIFRRAARVEGRNPKEKALNKLATISNVSRDYFGKIIGAHPSYENLPDFYREMVDVVVGIRQLKKSLVALKWADGMIQKVVSRAVREVKGGKNPSAVVKSAYGRVASIIEQIDDELRFLNDAKNRMREIPILQDLPTIVVAGYPNVGKSSLVARISTVKPEVASYPFTTKKINLGFAEFAGKRVQIIDTPGLLDRPLSKRNRIERRAVLALKHLADIILFVIDPTETCGYSLEKQLSLLEEIKGYFAKPTVEVYSKADMHDRRDRQAYSAVTGEGIDELIKEIEKMVKIHSQTSTVIAPSGQTSTQEQHSAAALEHHHHHH”, the “soluble on expression in E. coli” value is listed as “not soluble”.

For “MKIKEMVTSEMPRERLLSHGAKSLSNTELLAILINTGRKGFSSIDISNELLKSASNLNELKKSSINDLIKVKGIGLQKAITLKAAFELGERMGRRAENNRIKITQPSDVADYMIPTMKDLTQEHFVILLLNSKNVVIKETCVFKGTLNSSIVHPREIFSIAVRENANAIIAVHNHPSGDVLTIV”, the “soluble on expression in E. coli” value was “not soluble”.

As for “MGSDKIHHHHHHGILKERKLAKKRDEVQRYVLMAADVNLGQGNEFREIFAKSVKPLLINLDTGKVDSDANVLDFDERMAAINPETSSTPKKDIAKIKTRANDARVFKVFDDSGKLSSVVVPFYGKGLWSMIYGYVAVEPDFNTIKGLVVYEHGETPGIGDFVTDPAWLNQWKNKQLFDEKGKFAIRLVKGGVKEGDVHGVDAVSGATMTGRGVQRAMEFWFGVEGFQTFFNQLKTSAVQGEFGGEK”, the “soluble on expression in E. coli” value is “not soluble”.

For “AGQKVMITKMITDSVANPQMKQAFEQRLAKASTEDALNDIKRDIIRSAI”, the “soluble on expression in E. coli” value was “soluble”.

Take “MGSDKIHHHHHHMGILYLKEHTSCYNYTKCIREGFLYHKFCDIEMDEEINETDSILFVIEGELEMSCNGKKMKLLAGNMICFGRGSRFKIHSRGKGSIVIAQFDNAVQSCEKISFAQLNSLDSPGDKIYPLEIRDRLHLFLKLLISYLEDGANCVHFHETKLKELFWSIRFYYTKTEQAAFFHPILGNDYDFKKKIFNNYRNARTVKELAGLCGTPLSSFKRKFLKEFREPAGNWLQKQINNIIKYKLADEDIPIGNIAEELHFSSHPQFCRYCKRNFGYTPGEWRKLLKNRDKTPGKLSGRV”: the “soluble on expression in E. coli” value is reported as “not soluble”.

“MGRKNSPSANKELNELIAQYETARAENRQLYLDGDQLADIADQYAAERKFNEAQEVITYGLHLHPDSTDLLVEQAYLYLDTGKIPLAKKVVESITDEYDTDVKMLKAELMLNEGQLENARNVLDTIEDADELETIINIVYLYMDMGYPEAAKEWLDKGAPRHGKKEDFMAVMADYLTGTNQLEAASTFYNQLIDIDPYNASYWVGLAKCRFAAEDCEKAIEACDFALAADDKCGEAYAYRGHSYFYLNNSDAAIEDYKKAIKYKALPPEMGYMFLGLTYSNKEAWKEADDYYQRVIDRFIEEGLGNSPLLIDTYTNKAVAASRLGKYEEAHQLCKKAIAIQPDDPAIYLAEGKLYIQENQKKKAVKSFDKALTMEPSAEMWYMVASAYSDAEYLYQAKLCFQEAYRIDPNYADIAEKLSVLSLMHNEIDDFFKYNNESEHPISEDIILELLSRPNQTEEGEQMLREVWERMKKEKGNN”: the “soluble on expression in E. coli” value is recorded as “not soluble”.

For “MGSDKIHHHHHHMELRGIWLTNVDSKILHSRDKIAEAMNFLVDTGFNVIFPVVWNKAFTLYPSQLMETTFGQEIDPLYKGRDPLAEVIIEAQRVGLKVIPWFEYGFVSSYKQNGGLILSKKPEWIARERKGNLLVKNGFEWMNALDEEVQNFLIDLVLEVVRNYDIDGIQGDDRMPAFPSEGGYDAKTVGRYRQQFSCHPPQNNKDHKWLQWRANILTDFLARLYGKVKAVKPNILVSMAPSFYKWGFNEYLQDYPTWINREVVDIVHPQLYRRDFSSYKSLVEQLVKQQFIATHLNKIFPGILIKIGSYRISMDYLLEAIAYNRSVGINGEVLFFYEGLRENNDVLAKALRKYVYN”, the “soluble on expression in E. coli” value is listed as “not soluble”.

Regarding “MGSDKIHHHHHHMARHALMRTELLPTFGMPDKKVDGFIARIRERHPKMIFGYPSAMSHIVPCAEQRGVRFDDLGIKVVFCTSERLYNHQRETIVRLFGCPVANGYGGRDAGFIAHECPNGNMHVITEDIVVEIIGEAGRVLPHRQSGKIVVTHLATRDYPFIRYRTGDIASLSEETCSCGRGLPLLTDIQGRNTDFVVAAEGTVLHGLALIYVVHDLNEVRTFKIVRKNREHTRILLAPEAGGDMTGIDTIIIDGFRCRLGAKVTVKFVDAVLAEKSGKFCYVASHVVLH”, the “soluble on expression in E. coli” value is “not soluble”.

Regarding “MGSDKIHHHHHHMKGMDIMNSAMILEISWFQEHGIMRRAVNRGLARKSSHPSRIGIDEKYYGKHHRYITLVFNHDDHSVEFISLDRKQESLDLYYRSIGEEASGSIEAAPMDMWDPFIVSTKSNVTDAESKIVFDRFHVMKHMNMALDDVRWMESRMAEYKEMFRKTRCLWLYSPENLPDKYGERYEILKESDLKTARVYAIKENLRNLWNCSGEDEARSF”, the “soluble on expression in E. coli” value is “not soluble”.

For the sequence “MTGQTVECIRSAGVVGAGGAGLPTHIKADASVDTVLVNGASCEPLLMSDPYLIQAHPDIVIRGLLAVMDCTGARRGIICLKGKHAAAMAAVRGAVTREGSGRLEVFELRDFYPAGDEHVLVHEVLGRTVPQGGIPLQIGAVVSNVETLYNVALAMEGAPVTHRYVTVSGEVKRHMVVKVPVGTLVSDVLTFAGGPAITEYKVVDGGPMMGRVLPHTGRPVTKTTSGLLVLPPDHTVVARKIMDPEKVRRITTSICCQCSHCTDLCPRNLLGHSLHPHRLMRVLEGQMHAGTVAREALLCSECGLCEKFACPMMVSPREINAQIKQVLRREGVRWESTGEEPVPHPFRKSRYVATGRLLRRLDLVQYDTHPGYAGEYTPHMVRIPLAQHIGAPAVCVVAPGDTVRTGDLIGEIPEKSMGARVHASISGRVESVEDGMVTIKAC”, the “soluble on expression in E. coli” value is on record as “not soluble”.
